This test addresses GnRH binding sites on neoplastic cells (plasma membranes of the SW-48 colon adenocarcinoma cell line in the binding assay). The test can be described thus: binding of 125I-GnRH to plasma membranes of SW-48 cells, filter assay.

Non-specific binding data for one substance are collected here from patent US20090181894A1.

As to “125I-GnRH (from UniProt P01148) (peptide)”, the non-specific binding worked out at 37%.
